*1 amine or outer side, *2 acyl side, *3 side chain or, on linkers, in order; H or OH if unused. Side-chain parts run from the residue outwards. The star is where a group is joined. C18 diacid = O=C(O)CCCCCCCCCCCCCCCCC(=O)*; γGlu = O=C(O)[C@H](CCC(=O)[*:2])N[*:1]; Isovaleryl = CC(C)CC(=O)*; Ahx = NCCCCCC(=O)O
B1: Compound 141 (peptide)
peptide: Isovaleryl-APEK([Ahx-γGlu-C18 diacid])PEEDATPEELQSYYVSLRHYYNWLTRQRY-NH2
SMILES: CC(C)CC(=O)N[C@@H](C)C(=O)N1CCC[C@H]1C(=O)N[C@@H](CCC(=O)O)C(=O)N[C@@H](CCCCNC(=O)CCCCCNC(=O)CC[C@H](NC(=O)CCCCCCCCCCCCCCCCC(=O)O)C(=O)O)C(=O)N1CCC[C@H]1C(=O)N[C@@H](CCC(=O)O)C(=O)N[C@@H](CCC(=O)O)C(=O)N[C@@H](CC(=O)O)C(=O)N[C@@H](C)C(=O)N[C@H](C(=O)N1CCC[C@H]1C(=O)N[C@@H](CCC(=O)O)C(=O)N[C@@H](CCC(=O)O)C(=O)N[C@@H](CC(C)C)C(=O)N[C@@H](CCC(N)=O)C(=O)N[C@@H](CO)C(=O)N[C@@H](Cc1ccc(O)cc1)C(=O)N[C@@H](Cc1ccc(O)cc1)C(=O)N[C@H](C(=O)N[C@@H](CO)C(=O)N[C@@H](CC(C)C)C(=O)N[C@@H](CCCNC(=N)N)C(=O)N[C@@H](Cc1c[nH]cn1)C(=O)N[C@@H](Cc1ccc(O)cc1)C(=O)N[C@@H](Cc1ccc(O)cc1)C(=O)N[C@@H](CC(N)=O)C(=O)N[C@@H](Cc1c[nH]c2ccccc12)C(=O)N[C@@H](CC(C)C)C(=O)N[C@H](C(=O)N[C@@H](CCCNC(=N)N)C(=O)N[C@@H](CCC(N)=O)C(=O)N[C@@H](CCCNC(=N)N)C(=O)N[C@@H](Cc1ccc(O)cc1)C(N)=O)[C@@H](C)O)C(C)C)[C@@H](C)O
B2: Compound 149 (peptide)
peptide: Isovaleryl-APAK([Ahx-γGlu-C18 diacid])PEEDASPEESQRYYVSLRHYYNWLTRQRY-NH2
SMILES: CC(C)CC(=O)N[C@@H](C)C(=O)N1CCC[C@H]1C(=O)N[C@@H](C)C(=O)N[C@@H](CCCCNC(=O)CCCCCNC(=O)CC[C@H](NC(=O)CCCCCCCCCCCCCCCCC(=O)O)C(=O)O)C(=O)N1CCC[C@H]1C(=O)N[C@@H](CCC(=O)O)C(=O)N[C@@H](CCC(=O)O)C(=O)N[C@@H](CC(=O)O)C(=O)N[C@@H](C)C(=O)N[C@@H](CO)C(=O)N1CCC[C@H]1C(=O)N[C@@H](CCC(=O)O)C(=O)N[C@@H](CCC(=O)O)C(=O)N[C@@H](CO)C(=O)N[C@@H](CCC(N)=O)C(=O)N[C@@H](CCCNC(=N)N)C(=O)N[C@@H](Cc1ccc(O)cc1)C(=O)N[C@@H](Cc1ccc(O)cc1)C(=O)N[C@H](C(=O)N[C@@H](CO)C(=O)N[C@@H](CC(C)C)C(=O)N[C@@H](CCCNC(=N)N)C(=O)N[C@@H](Cc1c[nH]cn1)C(=O)N[C@@H](Cc1ccc(O)cc1)C(=O)N[C@@H](Cc1ccc(O)cc1)C(=O)N[C@@H](CC(N)=O)C(=O)N[C@@H](Cc1c[nH]c2ccccc12)C(=O)N[C@@H](CC(C)C)C(=O)N[C@H](C(=O)N[C@@H](CCCNC(=N)N)C(=O)N[C@@H](CCC(N)=O)C(=O)N[C@@H](CCCNC(=N)N)C(=O)N[C@@H](Cc1ccc(O)cc1)C(N)=O)[C@@H](C)O)C(C)C
B3: Compound 143 (peptide)
peptide: Isovaleryl-APEK([Ahx-γGlu-C18 diacid])PEEDSTPEELQRYYVSLRHYYNWLTRQRY-NH2
SMILES: CC(C)CC(=O)N[C@@H](C)C(=O)N1CCC[C@H]1C(=O)N[C@@H](CCC(=O)O)C(=O)N[C@@H](CCCCNC(=O)CCCCCNC(=O)CC[C@H](NC(=O)CCCCCCCCCCCCCCCCC(=O)O)C(=O)O)C(=O)N1CCC[C@H]1C(=O)N[C@@H](CCC(=O)O)C(=O)N[C@@H](CCC(=O)O)C(=O)N[C@@H](CC(=O)O)C(=O)N[C@@H](CO)C(=O)N[C@H](C(=O)N1CCC[C@H]1C(=O)N[C@@H](CCC(=O)O)C(=O)N[C@@H](CCC(=O)O)C(=O)N[C@@H](CC(C)C)C(=O)N[C@@H](CCC(N)=O)C(=O)N[C@@H](CCCNC(=N)N)C(=O)N[C@@H](Cc1ccc(O)cc1)C(=O)N[C@@H](Cc1ccc(O)cc1)C(=O)N[C@H](C(=O)N[C@@H](CO)C(=O)N[C@@H](CC(C)C)C(=O)N[C@@H](CCCNC(=N)N)C(=O)N[C@@H](Cc1c[nH]cn1)C(=O)N[C@@H](Cc1ccc(O)cc1)C(=O)N[C@@H](Cc1ccc(O)cc1)C(=O)N[C@@H](CC(N)=O)C(=O)N[C@@H](Cc1c[nH]c2ccccc12)C(=O)N[C@@H](CC(C)C)C(=O)N[C@H](C(=O)N[C@@H](CCCNC(=N)N)C(=O)N[C@@H](CCC(N)=O)C(=O)N[C@@H](CCCNC(=N)N)C(=O)N[C@@H](Cc1ccc(O)cc1)C(N)=O)[C@@H](C)O)C(C)C)[C@@H](C)O
B4: Compound 144 (peptide)
peptide: Isovaleryl-APEK([Ahx-γGlu-C18 diacid])PEEDQTPEELQRYYVSLRHYYNWLTRQRY-NH2
SMILES: CC(C)CC(=O)N[C@@H](C)C(=O)N1CCC[C@H]1C(=O)N[C@@H](CCC(=O)O)C(=O)N[C@@H](CCCCNC(=O)CCCCCNC(=O)CC[C@H](NC(=O)CCCCCCCCCCCCCCCCC(=O)O)C(=O)O)C(=O)N1CCC[C@H]1C(=O)N[C@@H](CCC(=O)O)C(=O)N[C@@H](CCC(=O)O)C(=O)N[C@@H](CC(=O)O)C(=O)N[C@@H](CCC(N)=O)C(=O)N[C@H](C(=O)N1CCC[C@H]1C(=O)N[C@@H](CCC(=O)O)C(=O)N[C@@H](CCC(=O)O)C(=O)N[C@@H](CC(C)C)C(=O)N[C@@H](CCC(N)=O)C(=O)N[C@@H](CCCNC(=N)N)C(=O)N[C@@H](Cc1ccc(O)cc1)C(=O)N[C@@H](Cc1ccc(O)cc1)C(=O)N[C@H](C(=O)N[C@@H](CO)C(=O)N[C@@H](CC(C)C)C(=O)N[C@@H](CCCNC(=N)N)C(=O)N[C@@H](Cc1c[nH]cn1)C(=O)N[C@@H](Cc1ccc(O)cc1)C(=O)N[C@@H](Cc1ccc(O)cc1)C(=O)N[C@@H](CC(N)=O)C(=O)N[C@@H](Cc1c[nH]c2ccccc12)C(=O)N[C@@H](CC(C)C)C(=O)N[C@H](C(=O)N[C@@H](CCCNC(=N)N)C(=O)N[C@@H](CCC(N)=O)C(=O)N[C@@H](CCCNC(=N)N)C(=O)N[C@@H](Cc1ccc(O)cc1)C(N)=O)[C@@H](C)O)C(C)C)[C@@H](C)O
B5: Compound 142 (peptide)
peptide: Isovaleryl-APEK([Ahx-γGlu-C18 diacid])PEEDALPEEIQRYYVSLRHYYNWLTRQRY-NH2
SMILES: CC[C@H](C)[C@H](NC(=O)[C@H](CCC(=O)O)NC(=O)[C@H](CCC(=O)O)NC(=O)[C@@H]1CCCN1C(=O)[C@H](CC(C)C)NC(=O)[C@H](C)NC(=O)[C@H](CC(=O)O)NC(=O)[C@H](CCC(=O)O)NC(=O)[C@H](CCC(=O)O)NC(=O)[C@@H]1CCCN1C(=O)[C@H](CCCCNC(=O)CCCCCNC(=O)CC[C@H](NC(=O)CCCCCCCCCCCCCCCCC(=O)O)C(=O)O)NC(=O)[C@H](CCC(=O)O)NC(=O)[C@@H]1CCCN1C(=O)[C@H](C)NC(=O)CC(C)C)C(=O)N[C@@H](CCC(N)=O)C(=O)N[C@@H](CCCNC(=N)N)C(=O)N[C@@H](Cc1ccc(O)cc1)C(=O)N[C@@H](Cc1ccc(O)cc1)C(=O)N[C@H](C(=O)N[C@@H](CO)C(=O)N[C@@H](CC(C)C)C(=O)N[C@@H](CCCNC(=N)N)C(=O)N[C@@H](Cc1c[nH]cn1)C(=O)N[C@@H](Cc1ccc(O)cc1)C(=O)N[C@@H](Cc1ccc(O)cc1)C(=O)N[C@@H](CC(N)=O)C(=O)N[C@@H](Cc1c[nH]c2ccccc12)C(=O)N[C@@H](CC(C)C)C(=O)N[C@H](C(=O)N[C@@H](CCCNC(=N)N)C(=O)N[C@@H](CCC(N)=O)C(=O)N[C@@H](CCCNC(=N)N)C(=O)N[C@@H](Cc1ccc(O)cc1)C(N)=O)[C@@H](C)O)C(C)C
B6: Compound 148 (peptide)
peptide: Isovaleryl-APEK([Ahx-γGlu-C18 diacid])PEEDATPEELQRYYVTLRHYYNWLTRQRY-NH2
SMILES: CC(C)CC(=O)N[C@@H](C)C(=O)N1CCC[C@H]1C(=O)N[C@@H](CCC(=O)O)C(=O)N[C@@H](CCCCNC(=O)CCCCCNC(=O)CC[C@H](NC(=O)CCCCCCCCCCCCCCCCC(=O)O)C(=O)O)C(=O)N1CCC[C@H]1C(=O)N[C@@H](CCC(=O)O)C(=O)N[C@@H](CCC(=O)O)C(=O)N[C@@H](CC(=O)O)C(=O)N[C@@H](C)C(=O)N[C@H](C(=O)N1CCC[C@H]1C(=O)N[C@@H](CCC(=O)O)C(=O)N[C@@H](CCC(=O)O)C(=O)N[C@@H](CC(C)C)C(=O)N[C@@H](CCC(N)=O)C(=O)N[C@@H](CCCNC(=N)N)C(=O)N[C@@H](Cc1ccc(O)cc1)C(=O)N[C@@H](Cc1ccc(O)cc1)C(=O)N[C@H](C(=O)N[C@H](C(=O)N[C@@H](CC(C)C)C(=O)N[C@@H](CCCNC(=N)N)C(=O)N[C@@H](Cc1c[nH]cn1)C(=O)N[C@@H](Cc1ccc(O)cc1)C(=O)N[C@@H](Cc1ccc(O)cc1)C(=O)N[C@@H](CC(N)=O)C(=O)N[C@@H](Cc1c[nH]c2ccccc12)C(=O)N[C@@H](CC(C)C)C(=O)N[C@H](C(=O)N[C@@H](CCCNC(=N)N)C(=O)N[C@@H](CCC(N)=O)C(=O)N[C@@H](CCCNC(=N)N)C(=O)N[C@@H](Cc1ccc(O)cc1)C(N)=O)[C@@H](C)O)[C@@H](C)O)C(C)C)[C@@H](C)O

Biological target: T1, human NPY2 receptor (human, UniProt P49146 1-381)
T1 construct: whole, on cells; also called hNPY2-R; hNPY2R
T1 sequence (looked up): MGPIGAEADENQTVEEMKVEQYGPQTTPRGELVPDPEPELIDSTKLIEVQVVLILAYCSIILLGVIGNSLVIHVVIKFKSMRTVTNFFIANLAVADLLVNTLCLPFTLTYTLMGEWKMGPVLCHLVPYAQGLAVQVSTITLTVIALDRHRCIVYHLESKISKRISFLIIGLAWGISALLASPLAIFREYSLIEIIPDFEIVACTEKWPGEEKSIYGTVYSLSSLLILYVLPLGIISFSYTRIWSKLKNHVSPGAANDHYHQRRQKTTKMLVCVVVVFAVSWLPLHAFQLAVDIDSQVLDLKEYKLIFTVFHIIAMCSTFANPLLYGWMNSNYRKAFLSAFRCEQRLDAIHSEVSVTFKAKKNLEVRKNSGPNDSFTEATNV
Experiment: RLB: displacement of 125I-PYY(1-36) from hNPY2R membranes

Row | Binder | Ki [nM]
1 | B1 | 8.17
2 | B2 | 3.97
3 | B3 | 3.42
4 | B4 | 9.76
5 | B5 | 3.97
6 | B6 | 2.85
